In IntAct's records for PubMed 12458226:

Key:
grip2_rat Grip2 = grip2_rat Grip2 (UniProt Q9WTW1)
grip1_mouse Grip1 = grip1_mouse Grip1 (UniProt Q925T6)
Sequence of grip1_mouse Grip1 (Q925T6 whole entry): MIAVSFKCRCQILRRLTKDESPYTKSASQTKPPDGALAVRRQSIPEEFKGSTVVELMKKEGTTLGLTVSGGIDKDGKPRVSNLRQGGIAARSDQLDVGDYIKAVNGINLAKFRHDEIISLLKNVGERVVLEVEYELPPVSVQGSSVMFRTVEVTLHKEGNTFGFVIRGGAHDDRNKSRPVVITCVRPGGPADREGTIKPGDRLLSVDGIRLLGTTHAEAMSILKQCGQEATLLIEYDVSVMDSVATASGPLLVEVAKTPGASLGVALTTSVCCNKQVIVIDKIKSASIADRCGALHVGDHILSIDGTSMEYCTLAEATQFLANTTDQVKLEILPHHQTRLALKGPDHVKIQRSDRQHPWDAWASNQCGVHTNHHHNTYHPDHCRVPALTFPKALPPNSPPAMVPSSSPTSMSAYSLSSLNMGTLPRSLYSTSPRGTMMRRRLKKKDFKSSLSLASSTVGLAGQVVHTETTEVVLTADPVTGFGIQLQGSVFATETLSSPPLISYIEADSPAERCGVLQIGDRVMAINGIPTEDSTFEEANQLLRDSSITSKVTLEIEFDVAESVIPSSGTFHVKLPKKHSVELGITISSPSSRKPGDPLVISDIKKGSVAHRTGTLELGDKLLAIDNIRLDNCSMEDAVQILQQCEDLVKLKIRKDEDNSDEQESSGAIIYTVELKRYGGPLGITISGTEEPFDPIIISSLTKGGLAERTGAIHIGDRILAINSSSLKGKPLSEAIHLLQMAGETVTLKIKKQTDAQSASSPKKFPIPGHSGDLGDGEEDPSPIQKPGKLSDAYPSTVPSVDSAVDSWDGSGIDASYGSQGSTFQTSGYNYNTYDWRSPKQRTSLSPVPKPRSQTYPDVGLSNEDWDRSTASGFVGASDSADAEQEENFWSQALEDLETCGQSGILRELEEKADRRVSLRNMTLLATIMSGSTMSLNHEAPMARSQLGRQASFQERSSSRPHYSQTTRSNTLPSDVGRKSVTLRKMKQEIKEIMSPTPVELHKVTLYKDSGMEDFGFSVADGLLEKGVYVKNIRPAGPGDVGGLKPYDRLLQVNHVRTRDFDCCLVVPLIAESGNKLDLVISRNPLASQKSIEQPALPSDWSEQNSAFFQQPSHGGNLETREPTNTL

Sequence of grip2_rat Grip2 (Q9WTW1 whole entry): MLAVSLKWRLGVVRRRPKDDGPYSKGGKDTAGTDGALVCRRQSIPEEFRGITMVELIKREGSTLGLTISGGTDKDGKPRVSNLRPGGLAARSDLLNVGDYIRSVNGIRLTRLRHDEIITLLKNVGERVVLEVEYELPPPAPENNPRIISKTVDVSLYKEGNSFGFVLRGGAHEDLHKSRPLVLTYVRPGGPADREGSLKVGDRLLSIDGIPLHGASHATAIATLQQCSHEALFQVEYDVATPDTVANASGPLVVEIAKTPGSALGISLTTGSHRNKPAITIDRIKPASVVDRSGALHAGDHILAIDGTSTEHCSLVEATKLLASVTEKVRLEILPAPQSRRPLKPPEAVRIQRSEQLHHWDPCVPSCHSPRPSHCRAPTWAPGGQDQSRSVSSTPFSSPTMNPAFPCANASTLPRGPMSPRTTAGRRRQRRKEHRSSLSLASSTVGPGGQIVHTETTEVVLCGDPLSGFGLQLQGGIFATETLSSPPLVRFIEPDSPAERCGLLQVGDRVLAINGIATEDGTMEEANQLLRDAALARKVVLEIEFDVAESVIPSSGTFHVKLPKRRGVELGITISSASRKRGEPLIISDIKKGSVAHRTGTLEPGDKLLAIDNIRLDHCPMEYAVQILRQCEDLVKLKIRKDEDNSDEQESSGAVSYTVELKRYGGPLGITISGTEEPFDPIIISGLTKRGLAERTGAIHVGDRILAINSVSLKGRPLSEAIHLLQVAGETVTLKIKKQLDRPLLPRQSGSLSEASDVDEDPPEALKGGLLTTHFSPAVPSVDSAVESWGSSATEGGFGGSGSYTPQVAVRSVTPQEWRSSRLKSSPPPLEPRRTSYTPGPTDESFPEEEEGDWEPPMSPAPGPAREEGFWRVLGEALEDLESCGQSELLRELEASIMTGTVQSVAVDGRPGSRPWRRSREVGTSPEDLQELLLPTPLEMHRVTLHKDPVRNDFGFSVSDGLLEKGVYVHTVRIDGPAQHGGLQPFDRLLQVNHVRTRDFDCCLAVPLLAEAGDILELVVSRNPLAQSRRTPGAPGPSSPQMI

Substance | effect of a mutation on the interaction (grip2_rat Grip2) | effect of a mutation on the interaction (grip1_mouse Grip1)
Chondroitin sulfate proteoglycan 4 (Mus musculus), Q8VHY0 Y2325G | disrupting interaction | disrupting interaction
Chondroitin sulfate proteoglycan 4 (Mus musculus), Q8VHY0 W2326G | disrupting interaction | disrupting interaction
Chondroitin sulfate proteoglycan 4 (Mus musculus), Q8VHY0 V2327G | disrupting interaction | disrupting interaction
